Holding throughout (settings): tags: endogenous on A431 cells (ATCC CRL-1555)
The target in data set [1] is T1, EGFR (epidermal growth factor receptor) (Homo sapiens, UniProt P00533 P00533:25-1210). The experiment in a line: flow. The procedure:
(§1) A secondary phycoerythrin labelled anti-human IgG antibody was used to detect binding of alpha-galactosyl IgG antibody to the compound.
(§2) A431 cells (ATCC CRL-1555) were harvested and resuspended at 5×10⁶ cells/mL in phosphate buffered saline (PBS) (Sigma D8662)+0.1% BSA (Bovine Serum Albumin-Sigma A2153)+0.1 mg/mL Yeast t-RNA (Invitrogen 15401-011)+5 mM MgCl₂ (Sigma M1028) and incubated on ice for 30 minutes to block. 5×10⁵ cells were then incubated with compound at various concentrations as described below or buffer alone at room temperature, shaking at 450 rpm for 1 hour. The cells were washed with 3×200 μL PBS+0.1% BSA, prior to adding 50 μL of Anti-alpha galactosyl IgG antibody (custom purification from human IVIG, Rockland Immunochemicals, Inc.) at 45 μg/mL in PBS+0.1% BSA and incubating at 4° C. for 1 hour. […] After a final wash of 3×200 μL PBS+0.1% BSA the cells were resuspended in 200 μL PBS+0.1% BSA and evaluated on a flow cytometer (FC500 Beckman Coulter). Data from all samples were analysed in the Kaluza software package (Beckman Coulter).
(§3) The fold shift over background was calculated by dividing the Mean Fluorescence Intensity (MFI) obtained in the presence of 10 nM or 1 μM alphamer by the Mean Fluorescence Intensity (MFI) obtained in the absence of alphamer. […]

The target in data set [2] is T1, EGFR (epidermal growth factor receptor). The experiment in a line: flow; at 1 uM (4.2 at 10 nM); same conditions. The protocol:
as §1, §2, §3

Data set [3] shares this target. Description: flow; at 1 uM (5.7 at 10 nM); same conditions. The protocol:
as §1, §2, §3

The target is the same in data set [4]. The experiment in a line: flow; at 1 uM (2.5 at 10 nM); same conditions. The procedure: as §1, §2, §3
The target is the same in data set [5]. Description: flow; at 1 uM (7.1 at 10 nM); same conditions. The procedure: as §1, §2, §3
Data set [6] has the same target. The experiment in a line: flow; at 1 uM (5.5 at 10 nM); same conditions. The procedure: as §1, §2, §3
Data set [7] shares this target. The experiment in a line: flow; at 1 uM (6.4 at 10 nM); same conditions. The procedure: as §1, §2, §3
Data set [8] shares this target. Description: flow; at 1 uM (6.5 at 10 nM); same conditions. The procedure: as §1, §2, §3
Data set [9] shares this target. Description: flow; at 1 uM (3.8 at 10 nM); same conditions. The procedure:
as §1, §2, §3

Data set [10] shares this target. The experiment in a line: flow; at 1 uM (5.8 at 10 nM); same conditions. The protocol:
as §1, §2, §3

The target is the same in data set [11]. Description: flow; at 1 uM (7.0 at 10 nM); same conditions. The procedure: as §1, §2, §3
Data set [12] has the same target. Description: flow; at 1 uM (5.9 at 10 nM); same conditions. The procedure:
as §1, §2, §3

In [1], GGGAUUUAAUCGCCGUAGAAAAGCAUGUCAAAGCCGGAACCC (ssRNA, as N22 but 5' alpha-Gal moiety from Preparation 90) [RNA aptamer conjugate 4 (Example 26)] had a binding signal of 3.3 fold MFI over background. With GGGAUUUAAUCGCCGUAGAAAAGCAUGUCAAAGCCGGAACCC (ssRNA, as N22 but 5' alpha-Gal moiety from Preparation 86) [RNA aptamer conjugate 6 (Example 28)], the binding signal in data set [2] came to 8.1 fold MFI over background. In data set [3], GGGAUUUAAUCGCCGUAGAAAAGCAUGUCAAAGCCGGAACCC (ssRNA, as N22 but 5' alpha-Gal moiety from Preparation 89) [RNA aptamer conjugate 10 (Example 32)] came in with a binding signal of 10.4 fold MFI over background. For GGGAUUUAAUCGCCGUAGAAAAGCAUGUCAAAGCCGGAACCC (ssRNA, as N22 but 5' alpha-Gal moiety from Preparation 85) [RNA aptamer conjugate 5 (Example 27)], the binding signal in data set [4] came out at 4.1 fold MFI over background. GGGAUUUAAUCGCCGUAGAAAAGCAUGUCAAAGCCGGAACCC (ssRNA, as N22 but 5' alpha-Gal moiety from Preparation 95) [RNA aptamer conjugate 14 (Example 36)]: the binding signal in data set [5] turned out to be 12.4 fold MFI over background. In data set [6], GGGAUUUAAUCGCCGUAGAAAAGCAUGUCAAAGCCGGAACCC (ssRNA, as N22 but 5' alpha-Gal moiety from Preparation 83) [RNA aptamer conjugate 8 (Example 30)] came in with a binding signal of 10.5 fold MFI over background.

On to GGGAUUUAAUCGCCGUAGAAAAGCAUGUCAAAGCCGGAACCC (ssRNA, as N22 but 5' alpha-Gal moiety from Preparation 97) [RNA aptamer conjugate 15 (Example 37)], for which the binding signal in [7] is 12.2 fold MFI over background. GGGAUUUAAUCGCCGUAGAAAAGCAUGUCAAAGCCGGAACCC (ssRNA, as N22 but 5' alpha-Gal moiety from Preparation 92) [RNA aptamer conjugate 17 (Example 39)] gave a binding signal in data set [8] of 10.4 fold MFI over background. The molecule GGGAUUUAAUCGCCGUAGAAAAGCAUGUCAAAGCCGGAACCC (ssRNA, as N22 but 5' alpha-Gal moiety from Preparation 84) [RNA aptamer conjugate 7 (Example 29)] displayed a binding signal in [9] of 8.2 fold MFI over background. In data set [7], GGGAUUUAAUCGCCGUAGAAAAGCAUGUCAAAGCCGGAACCC (ssRNA, as N22 but 5' alpha-Gal moiety from Preparation 96) [RNA aptamer conjugate 13 (Example 35)] yielded a binding signal of 12.3 fold MFI over background. In turn, GGGAUUUAAUCGCCGUAGAAAAGCAUGUCAAAGCCGGAACCC (ssRNA, as N22 but 5' alpha-Gal moiety from Preparation 87) [RNA aptamer conjugate 9 (Example 31)] had a binding signal in data set [10] of 12.5 fold MFI over background. As for GGGAUUUAAUCGCCGUAGAAAAGCAUGUCAAAGCCGGAACCC (ssRNA, as N22 but 5' alpha-Gal moiety from Preparation 91) [RNA aptamer conjugate 12 (Example 34)], the binding signal in data set [2] was 7.6 fold MFI over background. In the case of GGGAUUUAAUCGCCGUAGAAAAGCAUGUCAAAGCCGGAACCC (ssRNA, as N22 but 5' alpha-Gal moiety from Preparation 98) [RNA aptamer conjugate 16 (Example 38)], the binding signal in [11] came out at 13.6 fold MFI over background. The molecule GGGAUUUAAUCGCCGUAGAAAAGCAUGUCAAAGCCGGAACCC (ssRNA, as N22 but 5' alpha-Gal moiety from Preparation 88) [RNA aptamer conjugate 11 (Example 33)] had a binding signal in [12] of 11 fold MFI over background.

For the origin of these results see patent publication US20210369850, “COMPOUNDS AND […] USES […]” (CENTAURI THERAPEUTICS LIMITED, published 2021).
